From patent US20160250325A1 (ISA PHARMACEUTICALS B V, published 2016)
Ends that are not written are not given here. * marks the point of attachment. X1 = (RS)‑2,3‑di(palmitoyloxy)propyl, CCCCCCCCCCCCCCCC(=O)OCC(C*)OC(=O)CCCCCCCCCCCCCCC

B1: U-Pam-12 (1-dodecadecyl-urea-Cys((RS)-2,3-di(palmitoyloxy)-propyl)-Ser-Lys-Lys-Lys-Lys-NH2) (peptide)
peptide: C(X1)SKKKK-NH2
modifications: not fully specified (N-terminus); printed as 1-dodecadecyl-urea-Cys((RS)-2,3-di(palmitoyloxy)-propyl)-Ser-Lys-Lys-Lys-Lys-NH2; also: epimer mixture at C-2 of dipalmitoyloxypropyl

Biological target: mouse TLR2 on a murine dendritic cell line (mouse, UniProt Q9QUN7 25-784)
Sequence (Q9QUN7 25-784): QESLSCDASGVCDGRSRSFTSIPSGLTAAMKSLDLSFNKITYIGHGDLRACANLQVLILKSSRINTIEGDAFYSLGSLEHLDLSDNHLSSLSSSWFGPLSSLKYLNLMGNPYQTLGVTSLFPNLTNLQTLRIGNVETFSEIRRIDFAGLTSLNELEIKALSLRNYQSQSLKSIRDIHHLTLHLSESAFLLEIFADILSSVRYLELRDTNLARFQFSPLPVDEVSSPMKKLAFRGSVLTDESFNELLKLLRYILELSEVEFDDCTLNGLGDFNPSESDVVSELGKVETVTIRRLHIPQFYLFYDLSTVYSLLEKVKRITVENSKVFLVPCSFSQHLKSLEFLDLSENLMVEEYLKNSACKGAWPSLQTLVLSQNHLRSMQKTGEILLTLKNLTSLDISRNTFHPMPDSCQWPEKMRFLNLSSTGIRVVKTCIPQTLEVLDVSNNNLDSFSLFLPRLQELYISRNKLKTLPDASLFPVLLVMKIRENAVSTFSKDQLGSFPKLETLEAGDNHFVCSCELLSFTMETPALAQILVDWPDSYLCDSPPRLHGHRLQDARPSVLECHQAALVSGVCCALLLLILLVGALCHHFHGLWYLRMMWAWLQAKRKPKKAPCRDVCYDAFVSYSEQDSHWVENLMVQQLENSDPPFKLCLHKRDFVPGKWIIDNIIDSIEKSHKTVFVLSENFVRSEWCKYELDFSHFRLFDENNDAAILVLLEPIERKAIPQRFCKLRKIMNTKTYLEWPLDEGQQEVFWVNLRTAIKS
Test: cell-based or functional assay

| Binder | IL-12 in supernatant of a murine dendritic cell line after 24 h (sandwich ELISA); concentration needed for similar stimulation, against Pam3CysSK4 [fold] | IL-12 in supernatant of a murine dendritic cell line after 24 h (sandwich ELISA); maximal stimulation level against Pam3CysSK4 [fold] |
| --- | --- | --- |
| B1 | 100 | 2 |
| {1‑tetradecyl‑urea}-C(X1)SKKKK-NH2 (also: epimer mixture at C-2 of dipalmitoyloxypropyl) [U-Pam-14 (1-tetradecyl-urea-Cys((RS)-2,3-di(palmitoyloxy)-propyl)-Ser-Lys-Lys-Lys-Lys-NH2)] | 100 | 2 |
